Experimental data taken from FireProtDB (doi:10.1002/prot.10406).
Values joined by “and” are separate entries in the source; they are usually repeats but may differ in a detail not shown here. Equal values may be shown once.

Conditions: Homo sapiens, Urea, CD, phosphate citrate borate 2 mM 2 mM 2 mM, NaCl 10 mM, whole UniProt chain shown

B1: Alpha-lactalbumin wild type, P00709 (protein)
chain: MRFFVPLFLVGILFPAILAKQFTKCELSQLLKDIDGYGGIALPELICTMFHTSGYDTQAIVENNESTEYGLFQISNKLWCKSSQVPQSRNICDISCDKFLDDDITDDIMCAKKILDIKGIDYWLAHKALCTEKLEQWLCEKL
- denaturant m value (pH 2, 20 °C): 0.54 kcal/mol/M and 0.67 kcal/mol/M
- denaturant m value (pH 7, 2 °C, transition: 3): 0.95 kcal/mol/M and 0.55 kcal/mol/M
- denaturant midpoint (higher = more stable) (pH 7, 2 °C, transition: 3): 2.24 M and 2.34 M
- unfolding free energy (pH 7, 2 °C, transition: 3): 2.13 kcal/mol and 1.27 kcal/mol
